Experimental data taken from patent publication US20140087995A1 (published 2014).
Numbered stars: 1 amine (or outer) side, 2 acyl side, 3 side chain; on linkers, the order of the positions; unused ones are H or OH. Bridge positions count the residues as written; N and C are the ends. Side chains are listed from the residue outwards. Ends that are not written are not given here. * marks the point of attachment. C20 diacid = O=C(O)CCCCCCCCCCCCCCCCCCC(=O)*; γGlu = O=C(O)[C@H](CCC(=O)[*:2])N[*:1]; AEEA = NCCOCCOCC(=O)O

T1: human amylin 3(a) receptor (human calcitonin receptor co-expressed with RAMP-3) (human, UniProt P30988 25-474; O60896 24-148, limits assumed)
T1 sequence (looked up) 1: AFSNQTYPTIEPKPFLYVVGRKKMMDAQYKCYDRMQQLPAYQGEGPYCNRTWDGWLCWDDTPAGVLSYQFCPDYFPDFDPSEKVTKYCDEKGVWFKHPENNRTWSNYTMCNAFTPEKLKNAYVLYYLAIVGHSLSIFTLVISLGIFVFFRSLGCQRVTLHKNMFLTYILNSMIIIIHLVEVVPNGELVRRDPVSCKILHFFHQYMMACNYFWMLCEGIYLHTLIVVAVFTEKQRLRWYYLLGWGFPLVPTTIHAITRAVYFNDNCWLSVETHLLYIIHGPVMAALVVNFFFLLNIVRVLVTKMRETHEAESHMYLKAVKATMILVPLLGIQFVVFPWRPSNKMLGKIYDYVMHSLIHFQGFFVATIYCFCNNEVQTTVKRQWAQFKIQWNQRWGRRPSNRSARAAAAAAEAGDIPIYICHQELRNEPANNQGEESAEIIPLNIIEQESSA
T1 sequence (looked up) 2: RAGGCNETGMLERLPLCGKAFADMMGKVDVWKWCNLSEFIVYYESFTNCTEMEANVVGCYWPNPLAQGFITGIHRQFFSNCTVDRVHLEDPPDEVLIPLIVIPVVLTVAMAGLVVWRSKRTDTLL

B1: N^ε1-[2-[2-[2-[[(4S)-4-carboxy-4-(19-carboxynonadecanoylamino)butanoyl]amino]ethoxy]ethoxy]acetyl]-[Arg14,Arg17,Pro21,Pro27,Pro31]-h-amylin (peptide)
peptide: K([AEEA-γGlu-C20 diacid])CNTATCATQRLARFLRHSSPNFGAIPSSTPVGSNTY-NH2
modifications: disulfide 2-7; N-terminus assumed
SMILES: CC[C@H](C)[C@H](NC(=O)[C@H](C)NC(=O)CNC(=O)[C@H](Cc1ccccc1)NC(=O)[C@H](CC(N)=O)NC(=O)[C@@H]1CCCN1C(=O)[C@H](CO)NC(=O)[C@H](CO)NC(=O)[C@H](Cc1c[nH]cn1)NC(=O)[C@H](CCCNC(=N)N)NC(=O)[C@H](CC(C)C)NC(=O)[C@H](Cc1ccccc1)NC(=O)[C@H](CCCNC(=N)N)NC(=O)[C@H](C)NC(=O)[C@H](CC(C)C)NC(=O)[C@H](CCCNC(=N)N)NC(=O)[C@H](CCC(N)=O)NC(=O)[C@@H](NC(=O)[C@H](C)NC(=O)[C@@H]1CSSC[C@H](NC(=O)[C@@H](N)CCCCNC(=O)COCCOCCNC(=O)CC[C@H](NC(=O)CCCCCCCCCCCCCCCCCCC(=O)O)C(=O)O)C(=O)N[C@@H](CC(N)=O)C(=O)N[C@@H]([C@@H](C)O)C(=O)N[C@@H](C)C(=O)N[C@@H]([C@@H](C)O)C(=O)N1)[C@@H](C)O)C(=O)N1CCC[C@H]1C(=O)N[C@@H](CO)C(=O)N[C@@H](CO)C(=O)N[C@H](C(=O)N1CCC[C@H]1C(=O)N[C@H](C(=O)NCC(=O)N[C@@H](CO)C(=O)N[C@@H](CC(N)=O)C(=O)N[C@H](C(=O)N[C@@H](Cc1ccc(O)cc1)C(N)=O)[C@@H](C)O)C(C)C)[C@@H](C)O
notes: also called compound 64
B2: N^ε1-[2-[2-[2-[[(4S)-4-carboxy-4-(19-carboxynonadecanoylamino)butanoyl]amino]ethoxy]ethoxy]acetyl]-[Arg14,Arg17,Pro21,Pro27]-h-amylin (peptide)
peptide: K([AEEA-γGlu-C20 diacid])CNTATCATQRLARFLRHSSPNFGAIPSSTNVGSNTY-NH2
modifications: disulfide 2-7; N-terminus assumed
SMILES: CC[C@H](C)[C@H](NC(=O)[C@H](C)NC(=O)CNC(=O)[C@H](Cc1ccccc1)NC(=O)[C@H](CC(N)=O)NC(=O)[C@@H]1CCCN1C(=O)[C@H](CO)NC(=O)[C@H](CO)NC(=O)[C@H](Cc1c[nH]cn1)NC(=O)[C@H](CCCNC(=N)N)NC(=O)[C@H](CC(C)C)NC(=O)[C@H](Cc1ccccc1)NC(=O)[C@H](CCCNC(=N)N)NC(=O)[C@H](C)NC(=O)[C@H](CC(C)C)NC(=O)[C@H](CCCNC(=N)N)NC(=O)[C@H](CCC(N)=O)NC(=O)[C@@H](NC(=O)[C@H](C)NC(=O)[C@@H]1CSSC[C@H](NC(=O)[C@@H](N)CCCCNC(=O)COCCOCCNC(=O)CC[C@H](NC(=O)CCCCCCCCCCCCCCCCCCC(=O)O)C(=O)O)C(=O)N[C@@H](CC(N)=O)C(=O)N[C@@H]([C@@H](C)O)C(=O)N[C@@H](C)C(=O)N[C@@H]([C@@H](C)O)C(=O)N1)[C@@H](C)O)C(=O)N1CCC[C@H]1C(=O)N[C@@H](CO)C(=O)N[C@@H](CO)C(=O)N[C@H](C(=O)N[C@@H](CC(N)=O)C(=O)N[C@H](C(=O)NCC(=O)N[C@@H](CO)C(=O)N[C@@H](CC(N)=O)C(=O)N[C@H](C(=O)N[C@@H](Cc1ccc(O)cc1)C(N)=O)[C@@H](C)O)C(C)C)[C@@H](C)O
notes: also called compound 82

Target: T1, human amylin 3(a) receptor (human …)
Experiment: cell-based or functional assay

| Ratio hCT/hAmylin funct. (hCTR EC50 over hAmylin-R EC50) | hAmylin-R funct. EC50 (pM) | Binder |
| --- | --- | --- |
| 60.7 | 378 pM | B1 |
| 59.2 | 215 pM | B2 |
